# Values quoted from earlier work, collected in article PMC3034196.
# Biological target: alkaline protease (Pseudomonas aeruginosa) (UniProt Q03023)
# UniProt Q03023, sequence (Q03023 10-479): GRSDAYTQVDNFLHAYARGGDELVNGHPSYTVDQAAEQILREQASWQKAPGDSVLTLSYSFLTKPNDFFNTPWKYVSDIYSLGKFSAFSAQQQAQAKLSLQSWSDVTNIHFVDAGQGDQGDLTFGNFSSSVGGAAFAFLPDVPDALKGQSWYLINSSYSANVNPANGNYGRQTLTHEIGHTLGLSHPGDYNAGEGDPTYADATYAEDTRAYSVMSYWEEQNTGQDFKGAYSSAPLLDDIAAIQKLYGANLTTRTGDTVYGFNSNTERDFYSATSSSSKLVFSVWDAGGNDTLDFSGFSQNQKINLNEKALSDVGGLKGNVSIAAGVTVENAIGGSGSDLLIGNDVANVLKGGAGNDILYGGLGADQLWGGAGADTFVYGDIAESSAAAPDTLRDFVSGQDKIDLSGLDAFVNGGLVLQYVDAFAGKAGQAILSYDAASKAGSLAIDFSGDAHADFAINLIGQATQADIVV
substance,measurement,value
APRin (alkaline protease inhibitor) (from UniProt Q03026),Kd,4 pM
